Results: patent US7718626B2, “ErbB3 binding protein compositions and methods of use” (University of Maryland, Baltimore, priority 2005, dated 2010)

What was measured:
LNCaP xenografts = experiment: LNCaP xenograft tumorigenicity in SCID mice; assay type: in vivo
Procedure: In Vivo Studies in SCID Mice: Male SCID mice, 4-6 weeks of age, were purchased from the National Cancer Institute (Frederick, Md.). Animals were housed in a pathogen-free environment under controlled conditions of light and humidity and received food and water ad libitum. LNCaP cells were grown in complete medium and 800 μg/ml of G418 until 80% confluent. Cells were scraped into phosphate-buffered saline (PBS), collected by centrifugation, and suspended in Matrigel (10 mg/ml) (Collaborative Research, Waltham, Mass.) at 1×10^7 cells/ml. Each mouse received s.c. injections at one site on each flank with 100 μl of cell suspension. Tumors were measured three times a week with calipers, and tumor volumes were calculated by the formula 0.5236×r1^2×r2 (r1<r2). The animal protocols were approved by the Institutional Animal Care and Use Committee at the University of Maryland.
After sacrifice, tumors were excised and fixed in 10% buffered neutral formalin. Sections of formalin-fixed, paraffin-embedded tissues were cut to 5 μm. Slides were stained with an Ebp1 antibody (Upstate) diluted 1:50 using the standard avidin-biotin method (Vector Labs, Burlinghame, Calif.). Peroxidase activity was localized by the diaminobenzidine tetrachloride peroxidase reaction with Harris hematoxylin as a counterstain.
Ebp1 expression suppresses growth of prostate cancer xenografts: The effect of ectopic expression of ebp1 on the tumorigenicity of LNCaP cells was examined. Ebp1- and vector-transfected cells were injected subcutaneously into SCID mice, and tumor growth was monitored. Tumor growth was first noted in both groups at day 20. […] At the end of the study, tumors had developed at more than 85% of the sites injected with the vector control cells, while less than 40% of sites inoculated with ebp1 transfectants developed tumors. This difference was significant at p=0.04 by Fisher's exact test, two-sided. […] Average tumor volumes observed at the end of the study were 268±70 mm^3 as compared with 1214±168 mm^3 for the vector controls (p=0.0003). In addition, the growth rate was also slower for ebp1 transfectants at all time points measured (p=0.0001). […] Thus, cells that grew to form tumors had lost overexpression of the transgene.

[1] = system: secreted PSA of LNCaP cells; experiment: PSA secretion in conditioned media by ELISA; assay type: cell-based, human; conditions: ebp1 transfectants vs controls
Procedure: Measurement of PSA levels: Serum PSA levels were determined using a PSA ELISA kit from DSL, Inc (Webster, Tex.). […] Following a 1 h incubation and extensive washing of the plate, the wells were treated for 30 min with a second anti-PSA antibody labeled with horseradish peroxidase. After washing, the wells were treated with a tetramethylbendizine substrate for 10 min, and absorbance was read at 450 nm. The results of the microarray analysis were validated using real-time quantitative reverse-transcription PCR, Western blot, and ELISA methods. […] The expression of POV-1 mRNA and protein were each decreased about two-fold. PSA secretion in the conditioned media of ebp1 and vector control cells was assessed by ELISA. […] Finally, […]-2 mRNA expression was decreased approximately 40%.

LNCaP cells [2] = experiment: Cell growth in complete media; assay type: cell-based, human
Procedure: (§1) Cell Growth Assays: To measure growth in complete media, cells (2×10^4) were seeded in triplicate in individual wells of 12-well tissue culture plates in RPMI-1640 with 10% FBS and cultured for the indicated number of days. Cells were trypsinized, stained with Trypan Blue (0.4%), and counted in a hemacytometer. For soft agar growth assays, increasing concentrations of cells (as indicated) were plated in 35 mm petri dishes in complete media and 0.3% Difco Bacto Agar over an 0.5% agar layer. Colonies were counted after 10 days of incubation. For studies assessing the effect of dihydrotestosterone (DHT) on cell growth, cells (2×10^4) were plated in 12-well plates in complete media. After a 24-hour attachment period, the medium was replaced with steroid-free medium [phenol red-free RPMI 1640 and 5% charcoal-stripped FBS (Sigma)] for 48 hours. The final concentration of testosterone in the steroid-reduced media was less than 5 pM. After 48 hours of steroid depletion, cells were re-fed with fresh steroid-reduced medium with or without the indicated concentrations of DHT and/or bicalutamide (10 μM), and total cell numbers were assessed 7 days later.
Growth Characteristics of LNCaP ebp1 transfectants: The growth rate of the ebp1-transfected cells in complete media was compared to that of cells transfected with the empty vector. […]

[3] = system: AR and POV-1 protein in LNCaP cells; experiment: Western blot analysis of LNCaP ebp1 transfectants; assay type: cell-based, human
Procedure: Western Blot Analysis: Briefly, total cell extracts were prepared by direct lysis of cells with buffer containing 50 mM Tris-HCl (pH 7.4), 1 mM EDTA, 250 mM NaCl, 1% Triton X-100, 0.5 mM dithiothreitol (DTT) and 1 mM phenylmethylsulfonyl (PMSF). Protein concentrations were measured using a detergent compatible kit (BioRad, Hercules, Calif.). Proteins were resolved by SDS-PAGE and analyzed by Western blotting as described (Xia et al., 2001, Analysis of the Expression Pattern of Ebp1, an ErbB-3-Binding Protein, Biochem. Biophys. Res. Commun., 289:240-244). The AR antibody was from Santa Cruz Biotechnology (Santa Cruz, Calif.), the Ebp1 antibody from Upstate (Lake Placid, N.Y.), the polyclonal antibody to actin from Sigma (St. Louis, Mo.), and the POV-1 antibody was a gift of Dr. Rodrigo Chugai, National Cancer Institute. The results of the microarray analysis were validated using real-time quantitative reverse-transcription PCR, Western blot, and ELISA methods. […] The expression of POV-1 mRNA and protein were each decreased about two-fold. PSA secretion in the conditioned media of ebp1 and vector control cells was assessed by ELISA. […] Finally, […]-2 mRNA expression was decreased approximately 40%.

LNCaP cells [4] = experiment: Soft agar colony growth assay; assay type: cell-based, human; conditions: highest cell concentration tested, ten days
Procedure: as §1
The soft agar growth of ebp1 transfectants was also examined. LNCaP vector controls and ebp1 transfectants were seeded at concentrations between 1×10^4 and 1×10^5 cells per dish and colony growth in soft agar assessed ten days later. […]

B1: Ebp1: ErbB3 binding protein (SEQ ID NO: 2), tested by stable ectopic expression (ebp1 transfection) in LNCaP cells (protein)
chain: MSGEDEQQEQTIAEDLVVTKYKMGGDIANRVLRSLVEASSSGVSVLSLCEKGDAMIMEETGKIFKKEKEMKKGIAFPTSISVNNCVCHFSPLKSDQDYILKEGDLVKIDLGVHVDGFIANVAHTFVVDVAQGTQVTGRKADVIKAAHLCAEAALRLVKPGNQNTQVTEAWNKVAHSFNCTPIEGMLSHQLKQHVIDGEKTIIQNPTDQQKKDHEKAEFEVHEVYAVDVLVSSGEGKAKDAGQRTTIYKRDPSKQYGLKMKTSRAFFSEVERRFDAMPFTLRAFEDEKKARMGVVECAKHELLQPFNVLYEKEGEFVAQFKFTVLLMPNGPMRITSGPFEPDLYKSEMEVQDAELKALLQSSASRKTQKKKKKKASKTAENPTSGETLEENEAGD
modifications: Homo Sapien
With B1 the tumor growth rate (LNCaP xenografts; all time points measured, vs vector controls, p=0.0001) was “slower”, the “inoculation sites with tumors” value (LNCaP xenografts; day 20, s.c. in SCID mice (vector controls 35%)) was 10% and the “inoculation sites that developed tumors” value (LNCaP xenografts; end of the study (vector control more than 85%), p=0.04) was “less than 40%”. The average tumor volume (LNCaP xenografts; end of the study (vector controls 1214±168 mm^3), p=0.0003) was 268±70 mm^3, the “secreted PSA protein downregulation” value [1] was 10 fold and the “growth rate in complete media” value (LNCaP cells [2]; ebp1 transfectants vs vector control, p<0.05) was “significantly decreased”. The doubling time (LNCaP cells [2]; ebp1 transfectants, complete media (vector control 48 hours)) was 72 h, the AR protein decrease ([3]; Western blot, LNCaP ebp1 transfectants) was “more than five-fold” and the POV-1 protein decrease ([3]; ebp1 transfectants) was “about two-fold”. The “decrease of colony growth in soft agar” value (LNCaP cells [4]) was “approximately 90%”.
